Experimental data from paper PMC6669920, “Identification of a basal system for unwinding a bacterial chromosome origin”.

Assays:
DnaA wild-type [1] = target: T1, DnaA wild-type (Bacillus subtilis, UniProt P05648 1-446); test: EMSA; 1 mM ADP; single shifted species; EMSA: 25 nM scaffold, 0-250 nM DnaA, 10 mM HEPES-KOH pH 8, 100 mM potassium glutamate, 1 mM magnesium acetate, 30% glycerol, 10% DMSO, 1 mM ADP or ATP, 20°C 2 h; 6% PAGE in 45 mM Tris, 45 mM boric acid, 5 mM MgCl2; settings: protein: recombinant; tags: N-terminal His-tag removed with Factor Xa; label: 5' Cy3 on strand 1; 5' Cy5 on strand 2; blunt; 3 strands, nick between strands 1 and 2, both annealed to strand 3
DnaA I190A = DnaA I190A (Bacillus subtilis, UniProt P05648 1-446, I190A); test: EMSA; 1 mM ADP; shift similar to wild-type; EMSA: 25 nM scaffold, 0-250 nM DnaA, 10 mM HEPES-KOH pH 8, 100 mM potassium glutamate, 1 mM magnesium acetate, 30% glycerol, 10% DMSO, 1 mM ADP or ATP, 20°C 2 h; 6% PAGE in 45 mM Tris, 45 mM boric acid, 5 mM MgCl2; settings: protein: recombinant; tags: N-terminal His-tag removed with Factor Xa; label: 5' Cy3 on strand 1; 5' Cy5 on strand 2; blunt; 3 strands, nick between strands 1 and 2, both annealed to strand 3
DnaA wild-type [2] = target: T1, DnaA wild-type; test: EMSA; 1 mM ADP; up to 250 nM DnaA; EMSA: 25 nM scaffold, 0-250 nM DnaA, 10 mM HEPES-KOH pH 8, 100 mM potassium glutamate, 1 mM magnesium acetate, 30% glycerol, 10% DMSO, 1 mM ADP or ATP, 20°C 2 h; 6% PAGE in 45 mM Tris, 45 mM boric acid, 5 mM MgCl2; settings: protein: recombinant; tags: N-terminal His-tag removed with Factor Xa; label: 5' Cy5 on strand 2; blunt; 3 strands, nick between strands 1 and 2, both annealed to strand 3

Row | Binder | binding result (DnaA wild-type [1]) | binding result (DnaA I190A) | binding result (DnaA wild-type [2])
1 | Wild-type short scaffold (DnaA-box#6/7 + DnaA-trios), oHM752/oHM590/oHM558 (dsDNA) DNA 1: ACTTATCCACAAATCCACAGGCCC DNA 2: TACTATTACTTCTACTA DNA 3: TAGTAGAAGTAATAGTAGGGCCTGTGGATTTGTGGATAAGT | binds | binds | 
2 | ΔDnaA-boxes long scaffold, oHM753/oHM590/oHM754 (dsDNA) DNA 1: CGTTCGGCTGCGGCGAGCGGTATCAGCTCACTCAAAGGCGGTAATACGGCTTCCTTGCTTCCTTGCGGCCC DNA 2: TACTATTACTTCTACTA DNA 3: TAGTAGAAGTAATAGTAGGGCCGCAAGGAAGCAAGGAAGCCGTATTACCGCCTTTGAGTGAGCTGATACCGCTCGCCGCAGCCGAACG |  |  | no binding
